Reference: patent US20250388664A1

Experiments:
AβpE11-40 monomer = AβpE11-40 monomer (UniProt P05067); test: inhibition ELISA: antibody at a fixed concentration pre-incubated with titrated AβpE11-40 monomer in solution, then on an AβpE3-40 coat; the x axis is the AβpE11-40 concentration
Aβ1-40 monomer = Aβ1-40 monomer (UniProt P05067); test: inhibition ELISA: antibody at a fixed concentration pre-incubated with titrated Aβ1-40 monomer in solution, then on an AβpE3-40 coat; the x axis is the Aβ1-40 concentration
Sequence of Aβ1-40 monomer (P05067 672-711): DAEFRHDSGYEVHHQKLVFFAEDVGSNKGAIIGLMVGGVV

Sequence of AβpE11-40 monomer (P05067 682-711): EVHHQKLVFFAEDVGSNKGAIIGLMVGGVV

4G8 (antibody)
IC50 (read off the curve) (AβpE11-40 monomer): 20 nM
IC50 (read off the curve) (Aβ1-40 monomer): 20 nM
